Patent US11370846B2, “Compositions and methods to regulate Renalase in the treatment of cancer” (Yale University, priority 2014, dated 2022)

Tested on: PDACC
Assay: PDACC growth with anti-RNLS antibodies, WST-1
Assay type: cell-based, human
Settings: 72 hrs
Procedure: FIG. 25A through FIG. 25E are a series of charts and images showing that inhibition of RNLS signaling is cytotoxic to cancer cells in vitro and in vivo. FIG. 25A is a chart showing relative cell viability following transient transfection of Panc1 cells using a RNLS-specific siRNA, or a non-specific control siRNA, and cell viability assayed 96 h later using the WST-1 reagent; n=6, ** indicates p<0.001. FIG. 25B is a chart showing relative cell viability when cells were treated with indicated antibodies for 72 hrs and cell viability determined using WST-1; m28-RNLS and m37-RNLS: monoclonal antibodies raised against RNLS peptide RP220, ab31291: Abcam polyclonal antibody raised against a partial sequence of RP-220; n=6, * indicates p<0.005. […] FIG. 25D is a chart showing tumor volume increase after athymic nude mice received subcutaneous injection of Panc1 cells transduced with RNLS shRNA (sh-RNLS) or control (sh-Control); tumor volume measured every […] for up to 30 days, n=6 each; * indicates p<0.05. FIG. 25E is chart showing tumor volume increase after nude mice were xenografted with BxPC3; tumor volume measured prior to treatment every 3-4 days with 2 mg/kg of either rabbit IgG as a negative control or with m28-RNLS, n=10, * indicates p<0.05.

B1: 1D-28-4: rabbit anti-renalase monoclonal raised against peptide RP-220 (antigen 1D); heavy chain SEQ ID NO:9, light chain SEQ ID NO:10 (antibody)
heavy: METGLRWLLLVAVLKGVQCQSVEESGGRLVTPGTPLTLTCTVSGFSLSSFAVGWVRQAPGKGLEYIGIISSVGITRYASWAAGRFTISKTSTTVDLKITSPTTEDTATYFCARYGYSGDVNRLDLWGQGTLVTVSSGQPKAPSVFPLAPCCGDTPSSTVTLGCLVKGYLPEPVTVTWNSGTLTNGVRTFPSVRQSSGLYSLSSVVSVTSSSQPVTCNVAHPATNTKVDKTVAPSTCSKPTCPPPELLGGPSVFIFPPKPKDTLMISRTPEVTCVVVDVSQDDPEVQFTWYINNEQVRTARPPLREQQFNSTIRVVSTLPIAHQDWLRGKEFKCKVHNKALPAPIEKTISKARGQPLEPKVYTMGPPREELSSRSVSLTCMINGFYPSDISVEWEKNGKAEDNYKTTPAVLDSDGSYFLYSKLSVPTSEWQRGDVFTCSVMHEALHNHYTQKSISRSPGK
light: MDTRAPTQLLGLLLLWLPGATFAQVLTQTASPVSAAVGGTVTINCQASQSVYDNNNLAWYQQKPGQPPKQLIYGASTLASGVSSRFKGSGSGTQFTLTISGVQCDDAATYYCLGEFSCSSADCFAFGGGTEVVVKGDPVAPTVLIFPPSADLVATGTVTIVCVANKYFPDVTVTWEVDGTTQTTGIENSKTPQNSADCTYNLSSTLTLTSTQYNSHKEYTCKVTQGTTSVVQSFNRGDC
modifications: oryctolagus cuniculus
  PDACC growth: inhibitory effects
